Source: US20230265151A1, “GIP/GLP1 CO-AGONIST COMPOUNDS” (priority 2020, published 2023)
Residue numbers refer to the chain shown, from its start.

T1: human GIP receptor (human, UniProt P48546 22-466)
T1 sequence (looked up): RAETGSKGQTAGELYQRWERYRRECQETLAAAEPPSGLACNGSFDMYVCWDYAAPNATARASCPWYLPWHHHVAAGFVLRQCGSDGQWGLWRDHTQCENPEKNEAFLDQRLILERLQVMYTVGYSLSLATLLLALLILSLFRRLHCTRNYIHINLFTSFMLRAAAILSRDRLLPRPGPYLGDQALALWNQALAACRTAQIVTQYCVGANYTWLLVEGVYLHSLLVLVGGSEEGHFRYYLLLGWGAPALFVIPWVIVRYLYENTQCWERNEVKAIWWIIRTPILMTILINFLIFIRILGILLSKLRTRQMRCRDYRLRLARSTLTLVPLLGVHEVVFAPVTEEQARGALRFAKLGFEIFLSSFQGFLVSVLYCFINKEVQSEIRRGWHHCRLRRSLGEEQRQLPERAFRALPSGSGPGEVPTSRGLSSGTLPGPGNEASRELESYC

B1: Example 40 (peptide)
peptide: YXEGTXTSDXSIXLDXKAQXEFIXXLIEGGKSSGAPPPS
modifications: Aib2, αMeF(2F)6, 4Pal10, αMeL13, Orn16, Aib20, D-Glu24, αMeY25, K17 and K31: K((εK)-(εK)-(γ-Glu)-CO-(CH2)12-CO2H), C-terminal NH2
B2: Example 56 (peptide)
peptide: B1 peptide
modifications: Aib2, αMeF(2F)6, 1Nal10, αMeL13, Orn16, Aib20, D-Glu24, αMeY25, K17 and K31: K(AEEA2-(γ-Glu)-CO-(CH2)12-CO2H), C-terminal NH2
B3: Example 46 (peptide)
peptide: B1 peptide
modifications: Aib2, αMeF6, 4Pal10, αMeF13, Orn16, Aib20, D-Glu24, αMeY25, K17 and K31: K(AEEA2-(γ-Glu)-CO-(CH2)12-CO2H), C-terminal NH2
B4: Example 53 (peptide)
peptide: B1 peptide
modifications: Aib2, αMeF(2F)6, Ac5c10, αMeL13, Orn16, Aib20, D-Glu24, αMeY25, K17 and K31: K(AEEA2-(γ-Glu)-CO-(CH2)12-CO2H), C-terminal NH2
B5: Example 47 (peptide)
peptide: B1 peptide with F22X
modifications: Aib2, αMeF6, 4Pal10, αMeL13, Orn16, Aib20, αMeF22, D-Glu24, αMeY25, K17 and K31: K(AEEA2-(γ-Glu)-CO-(CH2)12-CO2H), C-terminal NH2
B6: Example 4 (peptide)
peptide: B1 peptide
modifications: Aib2, αMeF(2F)6, 4Pal10, αMeL13, Orn16, Aib20, D-Glu24, αMeY25, K17 and K31: K(AEEA2-(γ-Glu)-(4-(4-tert-butylphenyl)butanoyl)), C-terminal NH2
B7: Example 70 (peptide)
peptide: B1 peptide with K17I, X24K, E28K, K31P
modifications: Aib2, αMeF(2F)6, 4Pal10, αMeL13, Orn16, Aib20, αMeY25, K24 and K28: K(AEEA2-(γ-Glu)-CO-(CH2)12-CO2H), C-terminal NH2
B8: Example 44 (peptide)
peptide: B1 peptide
modifications: Aib2, αMeF6, 4Pal10, αMeL13, Orn16, Aib20, D-Glu24, αMeY25, K17 and K31: K(AEEA2-(γ-Glu)-CO-(CH2)12-CO2H), C-terminal NH2
B9: Example 60 (peptide)
peptide: B1 peptide
modifications: Aib2, αMeF(2F)6, Nle10, αMeL13, Orn16, Aib20, D-Glu24, αMeY25, K17 and K31: K(AEEA2-(γ-Glu)-CO-(CH2)12-CO2H), C-terminal NH2
B10: Example 41 (peptide)
peptide: B1 peptide
modifications: Aib2, αMeF(2F)6, 4Pal10, αMeL13, Orn16, Aib20, D-Glu24, αMeY25, K17 and K31: K((γ-Glu)-AEEA2-CO-(CH2)12-CO2H), C-terminal NH2
B11: Example 45 (peptide)
peptide: B1 peptide
modifications: Aib2, αMeF6, αMeF10, αMeL13, Orn16, Aib20, D-Glu24, αMeY25, K17 and K31: K(AEEA2-(γ-Glu)-CO-(CH2)12-CO2H), C-terminal NH2
B12: Example 52 (peptide)
peptide: B1 peptide
modifications: Aib2, αMeF(2F)6, αMeV10, αMeL13, Orn16, Aib20, D-Glu24, αMeY25, K17 and K31: K(AEEA2-(γ-Glu)-CO-(CH2)12-CO2H), C-terminal NH2
B13: Example 64 (peptide)
peptide: B1 peptide with F22X
modifications: Aib2, αMeF(2F)6, 4Pal10, αMeL13, Orn16, Aib20, 3FPhe22, D-Glu24, αMeY25, K17 and K31: K(AEEA2-(γ-Glu)-CO-(CH2)12-CO2H), C-terminal NH2
B14: Example 7 (peptide)
peptide: B1 peptide
modifications: Aib2, αMeF(2F)6, 4Pal10, αMeL13, Orn16, Aib20, D-Glu24, αMeY25, K17 and K31: K(AEEA2-(γ-Glu)-CO-(CH2)14-CH3), C-terminal NH2
B15: Example 55 (peptide)
peptide: B1 peptide
modifications: Aib2, αMeF(2F)6, Bip10, αMeL13, Orn16, Aib20, D-Glu24, αMeY25, K17 and K31: K(AEEA2-(γ-Glu)-CO-(CH2)12-CO2H), C-terminal NH2
B16: Example 49 (peptide)
peptide: B1 peptide with X10Y, S11X
modifications: Aib2, αMeF(2F)6, αMeS11, αMeL13, Orn16, Aib20, D-Glu24, αMeY25, K17 and K31: K(AEEA2-(γ-Glu)-CO-(CH2)12-CO2H), C-terminal NH2
B17: Example 66 (peptide)
peptide: B1 peptide with F22X
modifications: Aib2, αMeF(2F)6, 4Pal10, αMeL13, Orn16, Aib20, 1Nal22, D-Glu24, αMeY25, K17 and K31: K(AEEA2-(γ-Glu)-CO-(CH2)12-CO2H), C-terminal NH2
B18: Example 65 (peptide)
peptide: B1 peptide with F22X
modifications: Aib2, αMeF(2F)6, 4Pal10, αMeL13, Orn16, Aib20, 3,5FPhe22, D-Glu24, αMeY25, K17 and K31: K(AEEA2-(γ-Glu)-CO-(CH2)12-CO2H), C-terminal NH2
B19: Example 58 (peptide)
peptide: B1 peptide
modifications: Aib2, αMeF(2F)6, OMeY10, αMeL13, Orn16, Aib20, D-Glu24, αMeY25, K17 and K31: K(AEEA2-(γ-Glu)-CO-(CH2)12-CO2H), C-terminal NH2
B20: Example 61 (peptide)
peptide: B1 peptide with F22X
modifications: Aib2, αMeF(2F)6, 4Pal10, αMeL13, Orn16, Aib20, 2ClPhe22, D-Glu24, αMeY25, K17 and K31: K(AEEA2-(γ-Glu)-CO-(CH2)12-CO2H), C-terminal NH2
B21: Example 3 (peptide)
peptide: B1 peptide
modifications: Aib2, αMeF(2F)6, 4Pal10, αMeL13, Orn16, Aib20, D-Glu24, αMeY25, K17 and K31: K(AEEA2-(γ-Glu)-(4-(4-iodophenyl)butanoyl)), C-terminal NH2
B22: Example 48 (peptide)
peptide: B1 peptide
modifications: Aib2, αMeF6, 4Pal10, αMeL13, Orn16, Aib20, D-Glu24, αMeF25, K17 and K31: K(AEEA2-(γ-Glu)-CO-(CH2)12-CO2H), C-terminal NH2
B23: Example 42 (peptide)
peptide: B1 peptide
modifications: Aib2, αMeF(2F)6, 4Pal10, αMeL13, Orn16, Aib20, D-Glu24, αMeY25, K17 and K31: K((γ-Glu)-AEEA-CO-(CH2)12-CO2H), C-terminal NH2
B24: Example 62 (peptide)
peptide: B1 peptide with F22X
modifications: Aib2, αMeF(2F)6, 4Pal10, αMeL13, Orn16, Aib20, 3ClPhe22, D-Glu24, αMeY25, K17 and K31: K(AEEA2-(γ-Glu)-CO-(CH2)12-CO2H), C-terminal NH2
B25: Example 57 (peptide)
peptide: B1 peptide
modifications: Aib2, αMeF(2F)6, 2Nal10, αMeL13, Orn16, Aib20, D-Glu24, αMeY25, K17 and K31: K(AEEA2-(γ-Glu)-CO-(CH2)12-CO2H), C-terminal NH2
B26: Example 63 (peptide)
peptide: B1 peptide with F22X
modifications: Aib2, αMeF(2F)6, 4Pal10, αMeL13, Orn16, Aib20, 2FPhe22, D-Glu24, αMeY25, K17 and K31: K(AEEA2-(γ-Glu)-CO-(CH2)12-CO2H), C-terminal NH2
B27: Example 67 (peptide)
peptide: B1 peptide with X25K, K31P
modifications: Aib2, αMeF(2F)6, 4Pal10, αMeL13, Orn16, Aib20, D-Glu24, K17 and K25: K(AEEA2-(γ-Glu)-(4-(4-tert-butylphenyl)butanoyl)), C-terminal NH2
B28: Example 54 (peptide)
peptide: B1 peptide
modifications: Aib2, αMeF(2F)6, Ac6c10, αMeL13, Orn16, Aib20, D-Glu24, αMeY25, K17 and K31: K(AEEA2-(γ-Glu)-CO-(CH2)12-CO2H), C-terminal NH2
B29: Example 51 (peptide)
peptide: B1 peptide
modifications: Aib2, αMeF(2F)6, αMeL10, αMeL13, Orn16, Aib20, D-Glu24, αMeY25, K17 and K31: K(AEEA2-(γ-Glu)-CO-(CH2)12-CO2H), C-terminal NH2
B30: Example 43 (peptide)
peptide: B1 peptide
modifications: Aib2, αMeF(2F)6, 4Pal10, αMeL13, Orn16, Aib20, D-Glu24, αMeY25, K17 and K31: K(AEEA-(γ-Glu)-AEEA-CO-(CH2)12-CO2H), C-terminal NH2
B31: Example 68 (peptide)
peptide: B1 peptide with X24E, X25K, K31P
modifications: Aib2, αMeF(2F)6, 4Pal10, αMeL13, Orn16, Aib20, K17 and K25: K(AEEA2-(γ-Glu)-(4-(4-tert-butylphenyl)butanoyl)), C-terminal NH2
B32: Example 59 (peptide)
peptide: B1 peptide
modifications: Aib2, αMeF(2F)6, hTyr10, αMeL13, Orn16, Aib20, D-Glu24, αMeY25, K17 and K31: K(AEEA2-(γ-Glu)-CO-(CH2)12-CO2H), C-terminal NH2
B33: Example 69 (peptide)
peptide: B1 peptide with K17I, E21K, X24K, K31P
modifications: Aib2, αMeF(2F)6, 4Pal10, αMeL13, Orn16, Aib20, αMeY25, K21 and K24: K(AEEA2-(γ-Glu)-CO-(CH2)12-CO2H), C-terminal NH2
B34: Example 50 (peptide)
peptide: B1 peptide with X10Y, S11X
modifications: Aib2, αMeF(2F)6, Aib11, αMeL13, Orn16, Aib20, D-Glu24, αMeY25, K17 and K31: K(AEEA2-(γ-Glu)-CO-(CH2)12-CO2H), C-terminal NH2

Legend:
Assay in all cases: cell-based or functional assay
human GIP receptor = target: T1, human GIP receptor
human GLP-1 receptor = human GLP-1 receptor (human, UniProt P43220 24-463)
human glucagon receptor = human glucagon receptor (human, UniProt P47871 26-477)

Binder	EC50, cAMP (human GIP receptor) [nM]	EC50, cAMP (human GLP-1 receptor) [nM]	EC50, cAMP (human glucagon receptor) [nM]	Emax, cAMP (human GIP receptor) [%]	Emax, cAMP (human GLP-1 receptor) [%]
B1	0.0116	0.279	> 9950	–	–
B2	0.0138	0.205	> 9950	90.3	–
B3	0.0801	3.29	> 9950	89.5	–
B4	0.0841	0.18	> 9950	–	–
B5	0.0138	1.94	> 9950	–	87.1
B6	0.00962	0.137	> 9950	–	–
B7	0.0182	0.283	> 9950	89.1	–
B8	0.0637	4.77	> 9950	–	–
B9	0.0126	0.19	> 9950	–	–
B10	0.0108	0.691	> 9950	–	–
B11	0.0517	9.18	> 9950	–	–
B12	0.258	0.384	> 9950	–	–
B13	0.0158	0.557	> 9950	–	97.3
B14	0.00327	0.00676	> 9950	–	–
B15	0.0207	0.154	> 9950	–	–
B16	0.0205	0.398	> 9950	91	97.3
B17	0.0168	0.355	> 9950	–	–

Binder	EC50, cAMP (human GIP receptor) [nM]	EC50, cAMP (human GLP-1 receptor) [nM]	EC50, cAMP (human glucagon receptor) [nM]	Emax, cAMP (human GIP receptor) [%]	Emax, cAMP (human GLP-1 receptor) [%]
B18	0.0139	0.3	> 9950	–	–
B19	0.0158	0.194	> 9950	89.2	–
B20	0.012	1.35	> 9950	–	82.9
B21	0.0133	0.223	> 9950	–	–
B22	0.0182	1	> 9950	–	–
B23	0.0103	0.429	> 9950	–	–
B24	0.0211	0.48	> 9950	–	99.4
B25	0.0135	0.14	> 9950	–	–
B26	0.0176	1.86	> 9950	–	90.6
B27	0.00795	2.63	> 9950	–	91.7
B28	0.0675	0.538	> 9950	113	–
B29	0.11	0.89	> 9950	–	–
B30	0.0123	0.821	> 9950	–	–
B31	0.0105	0.668	> 9950	–	95.9
B32	0.024	0.202	> 9950	89.2	–
B33	0.0265	0.276	> 9950	99	–
B34	0.0168	0.273	> 9950	94.7	–
